Reference: patent publication US20240325557A1, “TREATMENT OF CANCER” (INNATE PHARMA, priority 2020, published 2024)
Positions count from the first letter of the chain named.

T1: Nectin-4 on SUM185 cells (Homo sapiens, UniProt Q96NY8)
T1 construct: host or cells: SUM185
T1 sequence (Q96NY8 32-510): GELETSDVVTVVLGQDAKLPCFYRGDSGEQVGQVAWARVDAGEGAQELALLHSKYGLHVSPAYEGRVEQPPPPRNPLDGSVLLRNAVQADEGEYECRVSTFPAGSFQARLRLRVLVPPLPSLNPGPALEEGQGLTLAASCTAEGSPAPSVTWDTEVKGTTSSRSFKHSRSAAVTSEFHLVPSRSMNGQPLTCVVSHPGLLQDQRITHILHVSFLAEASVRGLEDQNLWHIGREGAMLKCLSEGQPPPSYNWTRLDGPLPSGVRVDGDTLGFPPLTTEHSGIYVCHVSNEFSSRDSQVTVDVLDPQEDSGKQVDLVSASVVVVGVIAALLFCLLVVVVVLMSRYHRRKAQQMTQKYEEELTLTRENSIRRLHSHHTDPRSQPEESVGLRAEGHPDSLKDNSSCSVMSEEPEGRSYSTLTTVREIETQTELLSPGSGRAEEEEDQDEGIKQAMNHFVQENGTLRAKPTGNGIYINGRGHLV

T2: wild-type human Nectin-4 protein (huNectin4-his-BirA) (Homo sapiens, UniProt Q96NY8)
T2 sequence (Q96NY8 with tags, fused parts or gaps): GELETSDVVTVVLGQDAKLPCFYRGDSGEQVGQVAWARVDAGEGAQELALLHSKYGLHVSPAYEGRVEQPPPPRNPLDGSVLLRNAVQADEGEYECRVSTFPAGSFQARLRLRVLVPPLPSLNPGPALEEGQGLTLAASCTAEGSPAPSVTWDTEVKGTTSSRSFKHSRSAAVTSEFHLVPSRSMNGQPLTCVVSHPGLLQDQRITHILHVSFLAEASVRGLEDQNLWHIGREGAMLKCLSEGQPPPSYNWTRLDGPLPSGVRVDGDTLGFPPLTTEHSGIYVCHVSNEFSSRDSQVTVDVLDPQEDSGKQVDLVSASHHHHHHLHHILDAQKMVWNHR

T3: Nectin-4 Mutant 6 (H238A/I239T/H241Q) (Homo sapiens, UniProt Q96NY8, H238A/H241Q/I239T)
T3 construct: expressed in transfected cells; host or cells: HEK293T
T3 sequence (Q96NY8 32-510 H238A/I239T/H241Q): T1 sequence (Q96NY8 32-510) with H207A, I208T, H210Q

B1: 5E7 (antibody, V domains shown)
VH: QVQLQQPGAELVKPGASVKLSCKASGYIFTSYWMHWVKQRPGQGLEWIGEIDPSDSYTNYNQKFKGKATLTLDKSSSTTYMQLSSLTSEDSAVYYCVRGYGNYGDYWGQGTTLTVSS
VL: DVVMTQAAFSNPVTLGTSASISCRSSKSLLHSNGITYLYWYLQKPGQSPQLLIYQMSNLASGVPDRFSSSGSGTDFTLRISRVEAEDVGVYYCAQNLELPWTFGGGTKLEIK
B2: 10B12: anti-Nectin-4 antibody, VH SEQ ID NO: 24, VL SEQ ID NO: 25, binds junction of domain C1 and V (antibody, listed as Mus musculus, V domains shown)
VH: B1 VH with I28T, L72V, T79A
VL: B1 VL with V2I
B3: N41 (antibody, V domains shown)
VH: QVQLKQSGPGLVQPSQSLSITCTVSGFSLTNYGVHWVRQSPGKGLEWLGVIWSGGSTDYNAAFISRLSISKDTSKSQVFFKMNSLQADDTAIYYCARELIHAMDNWGQGTSVTVSS
VL: DIQMTQSPASLSVSVGETVTITCRASENIYSNLAWYQQKQGNSPQLLVFAATNLADGVPSRFSGSGSGTQYSLKINSLQSEDFGTYYCQHFWGTPTFGGGTKLEIK

What was measured:
[1] = molecular target: T1, Nectin-4 on SUM185 cells; assay: Flow cytometry titration on SUM185 cells; assay type: binding; details: cells detached with trypsin
Experimental: In this experiment, the ability of anti-Nectin-4 Abs to bind to Nectin-4 on SUM185 cells (expressing relatively high levels of Nectin-4) was assessed by flow cytometry. […] Briefly, SUM185 cells were detached from the flask with trypsin (37° C. for 5 min) and then washed once with media. 50 000 cells were incubated with a concentration range of test antibodies starting from 20 μg/ml (8 points, dilution factor 4) for 30 minutes at 4° C. […] Cells were washed twice with ice-cold SB. Acquisition was done on a flow cytometer.

[2] = molecular target: T2, wild-type human Nectin-4 protein (huNectin4-his-BirA); assay: Affinity determination by SPR (Biacore T200); assay type: binding; details: 25° C.
Experimental: Antibodies were tested for binding affinity to the wild-type human Nectin-4 protein by SPR (Surface Plasmon Resonance) methods. Measurements were performed on a Biacore T200 apparatus (Biacore GE Healthcare) at 25° C. Sensorgrams were analyzed with Biacore T100 Evaluation software. A CMR Sensor Chip with immobilized Protein A at about 600 RU was used. Anti-Nectin-4 antibodies were captured onto the Protein-A chip (antibodies diluted to 1 μg/ml in HBS-EP+1× buffer and injected over 120s at 40 μL/min). Recombinant human monomeric huNectin4-his-BirA protein was injected at different concentrations in a range from 100 nM to 1.56 nM over captured antibodies (HuNectin4-His-BirA diluted in HBS-EP+1× in ½ dilutions, injected over 120s at 40 μl/min) and allowed to dissociate for 600s. The chip was regenerated with NaOh 10 mM 2× for 30s at 40 μl/min. The sensorgram sets were fitted using the 1:1 kinetic binding model or two state reaction model, as a function of the profile of the curves.

[3] = test system: Nectin-4 Mutant 5 (A158P/E160G/S243A/F244S); assay: Binding to cell surface expressed Nectin-4 point mutant; design: species or system human; details: HEK-293T; results irrelevant, due to an absence of expression of said protein
Description: (§1) Combined with the published structures of the Nectin-4 domains, Nectin-4 mutations at surface exposed amino acids residues were designed. Nectin-4 domain structure was modelled based on Protein Data Bank reference: 4FRW (domains V et C1). Human Nectin-4 used was NCBI Reference Sequence: NP_112178.2, mouse Nectin-4 used was NCBI Reference Sequence: AAL79833.1, cynomolgus Nectin-4 used was NCBI Reference Sequence: XP_005541277.1, rat Nectin-4 used was NCBI Reference Sequence: NP_001102546.1. The cells expressing the Nectin-4 mutants are then be used for testing anti-Nectin-4 antibodies for loss of binding to different Nectin-4 mutants to identify antibodies that bind to the same site on Nectin-4. […] FIGS. 12A and 12B show a molecular model of the human Nectin-4 protein, indicating the position of substituted residues in mutants 7 (12A) and in mutants 7bis (12B); these mutants are in the C1 domain identify two sites at the junction of domain C1 and V domain that are on opposing faces of the Nectin-4 protein.
(§2) Nectin-4 mutants were generated by PCR. The sequences amplified were run on agarose gel and purified using the Macherey Nagel PCR Clean-Up Gel Extraction kit. The purified PCR products generated for each mutant were then ligated into an expression vector, with the ClonTech InFusion system. The vectors containing the mutated sequences were prepared as Miniprep and sequenced. After sequencing, the vectors containing the mutated sequences were prepared as Midiprep using the Promega PureYield™ Plasmid Midiprep System. HEK293T cells were grown in DMEM medium (Invitrogen), transfected with vectors using Invitrogen's Lipofectamine 2000 and incubated at 37° C. in a CO2 incubator for 48 hours prior to testing for transgene expression. The targeted amino acid mutations are shown in Table 2 below, listing the residue present in wild-type Nectin-4/position of residue/residue present in mutant Nectin-4, with position reference being to the Nectin-4 protein with leader peptide shown in SEQ ID NO: 1.

[4] = molecular target: T3, Nectin-4 Mutant 6 (H238A/I239T/H241Q); assay: as above; details: HEK-293T
Description: as §1, §2

| Molecule | binding profile on SUM185 cells [1] | ka [2] [M⁻¹ s⁻¹] | kd [2] [s⁻¹] | association with Nectin-4 Mutant 5 [3] | association with Nectin-4 Mutant 6 [4] |
| --- | --- | --- | --- | --- | --- |
| B1 | lower plateau for binding to the SUM185 cells | 620000 | 0.003 | − | + |
| B2 | lower plateau for binding to the SUM185 cells | 860000 | 0.01 | − | + |
| B3 |  | 580000 | 0.00087 | − | + |
